Results reported in paper PMC11338637.

Key:
[1] = target: Hir complex (Hir1/Hir2/Hir3/Hpc2) (S. cerevisiae) (UniProt P32479); assay: SPR
ctHir3 = ctHir3 (Chaetomium thermophilum, UniProt G0S723 1-2235); assay: fluorescence polarization

Molecule | KD1 (heterogeneous ligand model, fast site of weak affinity) [1] [nM] | KD2 (heterogeneous ligand model, slow site of strong affinity) [1] [nM] | Kd (ctHir3) [nM]
yeastAsf1/humanH3.3/humanH4 (from UniProt P32447 1-279; P84243 1-136; P62805 1-103) (complex) | 196 | 18 | 
AAAACAAAUAUGCAUAUUAUCGAGAGG (ssRNA) [ssRNA probe] |  |  | 292
TAGGGAGTAATCCCCTTGGCGG (ssDNA) [ssDNA probe] |  |  | 531
